B1: HDV Ribozyme (parent)
chain: GGCCGGCAUGGUCCCAGCCUCCUCGCUGGCGCCGGCUGGGCAACAUUCCGAGGGGACCGUCCCCUCGGUAAUGGCGAAUGGGACCCA

Variants of: B1
Test: self-cleavage, relative activity (ratio to wild type); higher = more cleavage; co-transcriptional

Going from G2C C3A to G2A U37G, the self-cleavage falls from 0.103 to 0.

First: G2A U37C
Second: G1U G38U
The self-cleavage of the first is lower: 0.232 for the first, 0.295 for the second.

Going from G2C U79A to G2U G68C, the self-cleavage falls from 0.133 to 0.0339.

Compared with G2C G50U, G2U U79C is lower in self-cleavage: 0.0594 for the first, 0.0434 for the second.

First: C3G A78C
Second: G2A G82U
The self-cleavage of the first is higher: 0.134 for the first, 0.0468 for the second.

First: G2A G82A
Second: C3A G59U
The self-cleavage of the first is lower: 0.0852 for the first, 0.755 for the second.

Going from G2A C86U to G2A C86A, the self-cleavage falls from 0.277 to 0.172.

Going from G2C U37G to G1U C15U, the self-cleavage rises from 0 to 0.269.

First: G1U C15A
Second: G1U C15G
The self-cleavage of the first is higher: 0.302 for the first, 0.0852 for the second.

Going from G2A C75U to G2C C24G, the self-cleavage falls from 0.0715 to 0.0361.

First: G2C C24U
Second: C3A U46C
The self-cleavage of the first is lower: 0.0405 for the first, 0.173 for the second.

Going from G2A C24A to G2C A77C, the self-cleavage falls from 0.0815 to 0.

Compared with C3G C26U, C3G C26A is lower in self-cleavage: 1.2 for the first, 0.669 for the second.

Going from G2C C4A to G2C C4G, the self-cleavage rises from 0.0282 to 0.794.

Compared with G2A C84G, G2C A42C is higher in self-cleavage: 0.0391 for the first, 0.122 for the second.

Compared with C3A A83C, C3A C85U is higher in self-cleavage: 0.177 for the first, 0.626 for the second.

Going from G2C C62G to C3G A70C, the self-cleavage rises from 0.0852 to 0.508.

Compared with G2C C48U, G2C C41U is lower in self-cleavage: 0.0923 for the first, 0.0475 for the second.

First: C3A U23A
Second: G1U G80A
The self-cleavage of the first is higher: 0.475 for the first, 0.355 for the second.

Going from G1U G80C to G2U C85G, the self-cleavage falls from 0.272 to 0.0966.

Going from G2U G54U to G1U C66G, the self-cleavage rises from 0.0589 to 0.211.

First: G1U C66A
Second: G2U A71C
The self-cleavage of the first is higher: 0.535 for the first, 0.0161 for the second.

Going from G2A C14A to G2U G11U, the self-cleavage falls from 0.0804 to 0.0529.

Compared with G2U G11A, G2U G11C is higher in self-cleavage: 0.0304 for the first, 0.0314 for the second.

Compared with G2C C75U, G2U U27G is higher in self-cleavage: 0.0594 for the first, 0.0791 for the second.

First: G1U C49G
Second: C3G A51U
The self-cleavage of the first is lower: 0.181 for the first, 0.768 for the second.

First: C3G A51C
Second: G2C U9A
The self-cleavage of the first is higher: 0.779 for the first, 0.0755 for the second.

Compared with G2C C18U, G1U G35A is higher in self-cleavage: 0.0615 for the first, 0.192 for the second.

First: G1U G35U
Second: G1U C33A
The self-cleavage of the first is lower: 0.288 for the first, 0.295 for the second.

First: G1U C4G
Second: G2C G25C
The self-cleavage of the first is higher: 0.634 for the first, 0.0346 for the second.

Compared with C3A A71C, G1U U46A is higher in self-cleavage: 0.105 for the first, 0.443 for the second.

Going from C3A C33A to G2A G5A, the self-cleavage falls from 0.0698 to 0.0343.

First: G1U C3G
Second: C3A C44A
The self-cleavage of the first is higher: 1.6 for the first, 0.103 for the second.

Going from C3A C44G to G2U C57G, the self-cleavage rises from 0.0615 to 0.109.

First: G2A A71U
Second: G2A G76U
The self-cleavage of the first is lower: 0.106 for the first, 0.332 for the second.

Going from G2A C7A to G2U C48A, the self-cleavage rises from 0 to 0.0378.

Going from C3A C26A to C3A G68A, the self-cleavage falls from 0.795 to 0.408.

Going from G2C C58U to C3A U37A, the self-cleavage rises from 0.0256 to 0.122.

Going from G2U C66A to G2C U20G, the self-cleavage falls from 0.0525 to 0.

Going from G2C G17U to C3A C64A, the self-cleavage rises from 0.0784 to 0.564.

Compared with G1U G5U, G1U G5C is higher in self-cleavage: 0.402 for the first, 0.755 for the second.

First: G2A U60A
Second: G2A U60G
The self-cleavage of the first is lower: 0.208 for the first, 0.314 for the second.

First: G2U C26G
Second: C3A G74C
The self-cleavage of the first is higher: 0.0627 for the first, 0.0369 for the second.

First: G1U G82U
Second: G1U G82C
The self-cleavage of the first is lower: 0.389 for the first, 0.47 for the second.

Going from G1U G82A to C3A G80C, the self-cleavage falls from 0.241 to 0.111.

Compared with G2A C33A, G1U U72G is higher in self-cleavage: 0.0548 for the first, 0.269 for the second.

Compared with C3A G55U, C3A G55C is higher in self-cleavage: 0.563 for the first, 0.642 for the second.

First: G2U G28A
Second: G1U G2C
The self-cleavage of the first is lower: 0.0164 for the first, 0.519 for the second.

First: G1U G2U
Second: G2C C13U
The self-cleavage of the first is higher: 0.366 for the first, 0.153 for the second.

Compared with C3A C18G, G2U C30A is higher in self-cleavage: 0 for the first, 0.0396 for the second.

Compared with G1U U69G, G2C G31A is lower in self-cleavage: 0.435 for the first, 0.0382 for the second.

Going from C3G C15G to C3G C15A, the self-cleavage rises from 0.266 to 0.293.

Compared with G2U C18A, G2U G74U is higher in self-cleavage: 0 for the first, 0.056 for the second.

Compared with G2U G74A, G1U G28U is higher in self-cleavage: 0.0163 for the first, 0.295 for the second.

First: G2U C13U
Second: G1U U47C
The self-cleavage of the first is lower: 0 for the first, 0.475 for the second.

Going from G2A G73A to C3A G25A, the self-cleavage falls from 0.0742 to 0.0658.

Going from G2A U27C to G2C G11C, the self-cleavage rises from 0.125 to 0.155.

First: G2A C64A
Second: G2A C64U
The self-cleavage of the first is higher: 0.248 for the first, 0.18 for the second.

Going from C3G A87G to G1U C13U, the self-cleavage falls from 0.708 to 0.326.

First: G2C U69A
Second: G2C U69G
The self-cleavage of the first is lower: 0.0252 for the first, 0.157 for the second.

First: G2U G25U
Second: G2A C63A
The self-cleavage of the first is lower: 0.0449 for the first, 0.198 for the second.

Going from G1U G81A to G1U C41A, the self-cleavage rises from 0.25 to 0.496.

First: G2C C49A
Second: G2C C49U
The self-cleavage of the first is lower: 0.0594 for the first, 0.132 for the second.

Going from G1U G39A to G2A G34A, the self-cleavage falls from 0.24 to 0.0536.

Compared with G2A C4A, G2A C4G is lower in self-cleavage: 0.0615 for the first, 0.0563 for the second.

Compared with G1U G17A, C3A G28C is lower in self-cleavage: 0.212 for the first, 0.0275 for the second.

Compared with G2A A70G, G2A A70C is higher in self-cleavage: 0.0511 for the first, 0.157 for the second.

Compared with G2C U12C, C3G C41U is higher in self-cleavage: 0.175 for the first, 0.547 for the second.

First: C3G C41A
Second: C3A C21G
The self-cleavage of the first is higher: 0.217 for the first, 0.0115 for the second.

Going from G2U A77C to G2U G5U, the self-cleavage falls from 0.0674 to 0.0163.

Going from G2U G5A to G2A U72G, the self-cleavage rises from 0.0171 to 0.0906.

First: G2A U72C
Second: C3A C4U
The self-cleavage of the first is higher: 0.0455 for the first, 0.0341 for the second.

Compared with C3A C4A, G2A C48A is higher in self-cleavage: 0.0542 for the first, 0.17 for the second.

First: G2A C48G
Second: G2A C48U
The self-cleavage of the first is lower: 0.157 for the first, 0.216 for the second.

Compared with G1U C7U, C3A A42C is lower in self-cleavage: 0.269 for the first, 0.162 for the second.

Going from G2A U12A to G2A U12G, the self-cleavage rises from 0 to 0.0405.

First: G2C G34C
Second: G2C C7U
The self-cleavage of the first is lower: 0 for the first, 0.089 for the second.

Compared with C3A A87C, C3A A87G is lower in self-cleavage: 0.515 for the first, 0.378 for the second.

Going from G1U C26G to G2U A8C, the self-cleavage falls from 0.469 to 0.

Going from G2C U47A to G1U G10U, the self-cleavage rises from 0.0208 to 0.336.

First: G2C C26G
Second: G1U C18U
The self-cleavage of the first is lower: 0.113 for the first, 0.315 for the second.

First: G1U C18A
Second: G2C C86G
The self-cleavage of the first is higher: 0.304 for the first, 0.0252 for the second.

First: C3G C4U
Second: G2U U69A
The self-cleavage of the first is lower: 0.0171 for the first, 0.0222 for the second.

For G2U U69G, the self-cleavage was 0.0475.

— the RNAGym collection of RNA variant scans (doi:10.7554/elife.80360)
